In assay [1] the target is straa_mouse Strada (UniProt Q3UUJ4).
Assay [2] has as its target goga2_mouse Golga2 (UniProt Q921M4).

Serine/threonine-protein kinase 25 (Mus musculus), Q9Z2W1 K49R, sequence (Q9Z2W1 whole entry K49R): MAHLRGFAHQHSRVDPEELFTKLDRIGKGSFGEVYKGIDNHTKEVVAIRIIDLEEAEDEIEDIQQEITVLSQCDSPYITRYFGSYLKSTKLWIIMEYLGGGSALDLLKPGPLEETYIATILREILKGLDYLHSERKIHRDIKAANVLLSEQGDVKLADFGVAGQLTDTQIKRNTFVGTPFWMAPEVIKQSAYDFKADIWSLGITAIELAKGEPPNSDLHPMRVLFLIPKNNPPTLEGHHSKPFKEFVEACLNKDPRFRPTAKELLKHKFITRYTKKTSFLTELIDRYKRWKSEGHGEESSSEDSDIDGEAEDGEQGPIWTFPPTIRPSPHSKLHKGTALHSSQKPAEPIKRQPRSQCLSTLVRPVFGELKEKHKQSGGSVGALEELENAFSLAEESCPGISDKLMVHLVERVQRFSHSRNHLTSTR
straa_mouse Strada, sequence (Q3UUJ4 whole entry): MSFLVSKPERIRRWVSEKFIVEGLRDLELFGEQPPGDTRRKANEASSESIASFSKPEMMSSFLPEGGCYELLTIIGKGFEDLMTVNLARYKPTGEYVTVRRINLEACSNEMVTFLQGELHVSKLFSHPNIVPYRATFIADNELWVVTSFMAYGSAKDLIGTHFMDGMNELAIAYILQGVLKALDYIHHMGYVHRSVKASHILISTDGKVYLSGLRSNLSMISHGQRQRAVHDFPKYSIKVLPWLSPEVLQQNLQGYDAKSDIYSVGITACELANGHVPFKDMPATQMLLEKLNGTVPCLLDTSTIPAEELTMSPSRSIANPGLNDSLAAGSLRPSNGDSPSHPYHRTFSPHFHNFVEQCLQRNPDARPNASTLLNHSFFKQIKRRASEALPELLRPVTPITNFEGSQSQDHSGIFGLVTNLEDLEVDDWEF
goga2_mouse Golga2, sequence (Q921M4 whole entry): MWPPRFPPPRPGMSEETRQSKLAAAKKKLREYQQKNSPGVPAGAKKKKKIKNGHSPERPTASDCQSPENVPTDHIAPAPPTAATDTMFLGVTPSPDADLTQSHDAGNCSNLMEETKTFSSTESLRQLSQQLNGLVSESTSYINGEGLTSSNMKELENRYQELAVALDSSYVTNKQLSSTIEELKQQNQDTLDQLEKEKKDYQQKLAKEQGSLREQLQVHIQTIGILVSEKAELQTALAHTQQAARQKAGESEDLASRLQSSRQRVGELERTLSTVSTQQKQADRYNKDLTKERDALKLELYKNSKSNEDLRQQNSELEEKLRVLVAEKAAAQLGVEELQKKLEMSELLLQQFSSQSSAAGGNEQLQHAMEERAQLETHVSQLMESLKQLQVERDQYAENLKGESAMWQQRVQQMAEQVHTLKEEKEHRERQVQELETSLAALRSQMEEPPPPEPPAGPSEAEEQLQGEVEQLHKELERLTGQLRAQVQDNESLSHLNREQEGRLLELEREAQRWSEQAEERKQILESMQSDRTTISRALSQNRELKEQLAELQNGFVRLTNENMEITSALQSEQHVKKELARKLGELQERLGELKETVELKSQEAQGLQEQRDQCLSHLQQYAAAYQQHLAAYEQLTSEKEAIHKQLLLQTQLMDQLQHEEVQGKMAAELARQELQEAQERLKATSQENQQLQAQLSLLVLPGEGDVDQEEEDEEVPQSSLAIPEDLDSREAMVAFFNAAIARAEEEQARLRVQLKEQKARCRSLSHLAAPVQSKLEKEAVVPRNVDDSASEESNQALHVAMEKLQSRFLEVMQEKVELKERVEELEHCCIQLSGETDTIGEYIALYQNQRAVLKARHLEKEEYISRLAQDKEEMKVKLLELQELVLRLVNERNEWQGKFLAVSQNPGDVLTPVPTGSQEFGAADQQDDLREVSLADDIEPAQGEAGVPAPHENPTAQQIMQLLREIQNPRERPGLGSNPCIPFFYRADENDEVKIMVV

For the substance “Serine/threonine-protein kinase 25 (Mus musculus), Q9Z2W1 K49R”, the “effect of a mutation on the interaction” value in assay [1] is on record as “decreasing interaction”; in assay [2], “increasing interaction”.

The values are drawn from IntAct's records for PubMed 21111240.
